This series is described as follows: label from the status in PepcDB records.
“MKKTLVIVVHPDLTKSVINKAWAKAIEGAATIHHLYEQYPNGQIDLAHEQALLEAHDRIVFQFPLYWYAAPYLLKKWMDEVFTEGWAYGAGGDKMEGKEICAAVSCGSPKSAFAEGAQQCHTLRSYLNVFDGIAAFLRARFTGYHACYDSYNPRLPEMLPANCEAYLRFIKGE”: the protein production entry is “failed”. Regarding “MYELERTVFQELFRRVLDNQYQVTPEERKALVQCDNSIVRRGIFSALTSFSLIYYGLKQFQKHFNASSSLRLRPAIPATLLGLTTGFFYGRTAAPGCLQNLMNVPNSAVAEEVKIIIRELYEQSPSSTTGQTIATRYGFLLDSTTVPMKISDVGFGDNENSDWKEVDTWQSDNSIYQGTVQKRVGPRNSDKRRVIRPNDKVENHIHQDALANSTSSLPSNETDYGFASLPGYSSSQSDSDVLESWDIGNDNQQENTNNEPNVKKESHRRRRRNEFRKSNGQVKSLESDPTEQGTIQTDTKDLLSSRQDTDALWDSSFSGKGSSATAF”, the protein production entry is listed as “failed”. With “MRVALAGRPQEALDVALPAAELPEHLRWRLRSWQADAQEALGQSAEATLLYAEAAHLAAGLNRAVMLQEQAALLLQQGDFEEARQVLERARTLYTGPRPGTDPNDEGLNLATWHYLMAQVRLNLGQPEAAQDDIREAARLEGLSGDPSYGVALVQGQVLSHLGQLEEALEAFGQALARATDPDRPYANHELGVALLDLDRPLEAREKLEEVLLVPDYPFHPEVLADIAECDYRLGRLPEAQLAAEQALNQGAVVPASVVLGNVALDYYHLDDALDHYERVVREAVHGSRDWVLGHQMAADVMAQQGFPDPAAAYAHAQQALEHTPESDDWYVTLQDHLSRAQALMGSAGGRTLN” the entry was “failed”. The entry for “EIKLEDVLIKRRSVREYCSSPLTLRELSHILFAAYGVTDERGFKTVPSAGATYPLEIYVNVRDVVGVEEGVYKYIPERHSIVRILDEEVGHELALAALKQMFIAIAPIVLIIAANYERTTRVYGDRGFRYVHMEVGHVAQNVYLMATSLGLGTVSVGAFYDNEIREILKIKEYPLLLMPVG” is “failed”; for “AQAEVRIDGPIEYGVFESRYQDFQPGERVLTRSEQNIQQTTEVPAKLGTKFGMRYQLSGKQEGDTPLTLLYLTPGVVTPDGQRHDKFEVVQKLVPGAPTDVMAYEFTEPHEVVKGEWRLMVFQGDRLLAEKSFDVR” it is “not failed”; for “MNVRNNTKLITINALLLAIGVILHQITPILGLPMQPDFALTMLFIIIILNDNFKITMVSGTLMGIFTAMTTKFPGGQLPNVVDKIFTALIVFLFIALIKKSNILGRLSVEKRNNILIAIVLPLGTLVSGILFLGTAKIIVGLPASFSILFLTVVVPSIALNTVIGLVLYRIVEKSLRRASYSIRG” it is “failed”. On to “MLDLNEFLTRKMKIDVLLKEHGWDVGDRSKVVLEVDTIQSDIKKQDYRQVNETRRNDAESKYADYLLLDSTGKPLAIIEAKRTTKDPILGQKQAEEYADDIKTQTGEEVFIFLSNGYQIWLWDRERYGPRQIKGFYSPEDLERLLYQRKYSERETEIDIDGNIVDRAKSVEVATRVVEHIHKGHRKALIVMATGTGKTRVAMAIIDQLMRESRVQRVLFLTDRKALRKQAYEKGYLRYFPEETKEIIHSGNYNSNCRLYVSTIQTFQEIYNQKDRNGKYRISPGAFDLIFSDEAHRSIYSKWKGIFTYLDAIQIGLTATPADMVDRDTFRFFECHDDIPTALYSYEDAVRDGVLCDFRKNISGARTYFQIEGLKPENLTEGEREELIKKGIDPDDINFEGTELEKKVAVKGTSEAIVREFMENCLTDQAGTLPAKTIFFAISKLHAKRLWEAFEKLYPEHKGKLARIIVSEDSRAQQLIKDFEEKPFPRIAISVDMMDTGIDVPEVCNLVFAKPVFSKIKFWQMLGRGTRADGACEHREWLPDGKKEYFKVFDFWNNFEYWNMNPEGAKNESAEAITNRIFLTRLKQLGELMQRRDPASEKAAEKVKAKIISDIESLPRDSVNVREHLQDMEKALSPKLWDNIAIDPVEFLQKKIMPLMKFKPDVNLKEATFTLRCEKLAYALLENDKAEIDRLKTSIAEMVDRLPRTLDSVRAREALMDNVLSRSFWETVSFEDVQLLLSDLAPLMPYMAKEPRETIVIDMSDIIAERKKWEISDGNDPSYVEAYRREVEARIKALAETHPAVRKIKNNEPLTDYDLEQLEETLLNADLTPDNPKLSSHASLSDLYPSRQASLVDFIRQVLGLYSSPSPDALIKDAFQTYIIGNNKHYSSDQLNFILTLQTVFLKKKHIEYSTLWLPPFTNFGTTAPFPMFTQEELNSFIDICKGVEKDIFM”, for which the protein production entry is reported as “not failed”. Take “MARTITFDIPSQYKLVDLIGEGAYGTVCSAIHKPSGIKVAIKKIQPFSKKLFVTRTIREIKLLRYFHEHENIISILDKVRPVSIDKLNAVYLVEELMETDLQKVINNQNSGFSTLSDDHVQYFTYQILRALKSIHSAQVIHRDIKPSNLLLNSNCDLKVCDFGLARCLASSSDSRETLVGFMTEYVATRWYRAPEIMLTFQEYTTAMDIWSCGCILAEMVSGKPLFPGRDYHHQLWLILEVLGTPSFEDFNQIKSKRAKEYIANLPMRPPLPWETVWSKTDLNPDMIDLLDKMLQFNPDKRISAAEALRHPYLAMYHDPSDEPEYPPLNLDDEFWKLDNKIMRPEEEEEVPIEMLKDMLYDELMKTME”: the protein production entry is listed as “failed”.

On to “MLRLSAPGQLDDDLCLLGDVQVPVFLLRLGEASWALVEGGISRDAELVWADLCRWVADPSQVHYWLITHKHYDHCGLLPYLCPRLPNVQVLASERTCQAWKSESAVRVVERLNRQLLRAEQRLPEACAWDALPVRAVADGEWLELGPRHRLQVIEAHGHSDDHVVFYDVRRRRLFCGDALGEFDEAEGVWRPLVFDDMEAYLESLERLQRLPTLLQLIPGHGGLLRGRLAADGAESAYTECLRLCRRLLWRQSMGESLDELSEELHRAWGGQSVDFLPGELHLGSMRRMLEILSRQALPLD”, for which the protein production entry is “failed”. Consider “MTDNSPPPNGHAQARVRKNNTFLSAVWLVPLIALIAGGWLWVKEIRNRGPVVTLLMDSAEGIEVNNTVIKVLSIDVGRVTRIKLRDDQKGVEVTAQLNADVSGLIRSDTQFWVVKPRIDQSGVTGLGTLLSGSYIAFTPGKSDEAKDVFQVQDIPPVTAIGQSGLRLNLIGKNDRILNVNSPVLYENFMVGQVESAHFDPSDQSVHYTIFIQSPNDKLIHSASRFWLESGINIETTGSGIKLNSAPLPALLSGAISFDSPKTKNSKNVKSEDSFTLYDSRSEVANLPDDRSLYYTAFFKQSVRGLTVGSPVEYKGLNVGVVSDVPYFDRNDSLHLFENGWIPVRIRIEPSRLEINADEQSKEHWKQQFQTALNKGLTATISSNNLLTGSKMIELNDQPSASPKLRPHTVYAGDTVIATQGGGLDDLQVKLADLLDKFDKLPLDKTVAELNGSLAELKSTLKSANAALSSIDKLVGKPQTQNIPNELNQTLKELRTTLQGVSPQSPIYGDVQNTLQSLDKTLKDVQPVINTLKEKPNALIFNSSSKDPIPKGSR”, for which the protein production result was “failed”. For the sequence “MTGEGRYEEVEAEARTLAALPRRPWRRRPPHWEARVLATGAAVMHGRMAEALDELDTLIAELEPVGLNSQMLRLIARSNRVVALSGLRRYAEAETVANGVLRELNQIAHRAPVSGLETNTLRHLATVLCGLARHEEAEAVVRGNLSRANGPAAGVLHTTLAQSLNGQGRYEEALAEVRRSPPRPPRYAAGHPDLVAAEALYGLGRRAEAEDAVRRSLADCERWLHPAHPRTGEARALLARVTGPKPGEESRGEPGE”, the protein production entry was “failed”. For the sequence “MMKTQAEINKRLDAYRKGTVDSPYRVKVWTSYDNRFYPMEPGCIDVDKSFHAQCADLTIDYILWLTDNEFRIRGNAKDAINPKKNKLPEGWKIVLNRPSTVPRKGWIAVFTDGTYWEYGHIGMVYDGGNTSRFQILEQNWNGWANKKPSLRWDNYYGLTHFIVPPVAKENKAVSSSKQQAPKQKVKKASTKKALPKITKHITGYNMDKRGYNPKGVVLHNDAGGMNYKQYYNNLVNANYDRLARGIAHAYVDRTGIWEAIDESRIAWHVADGTRPGSGNHDFYGIEVNQSLRASDKEFLENEQAVFQFAAEKLKKWGLPANRNTVRLHNEFSQTSCPHRSMVLHTGLDPLYHSITEHARLKLKDYFIKQIRAYMDGKKPTSKVVVSKPGSASTPATRKDANGYRENPHGTLYKEEHATFTANANIITRYVGPFTNMPQAGILKAGQTIIYDEVMKQDGYIWVGYTAYNGKRVYLPVRKWNRETDSVGKLWGVIS”, the protein production entry is recorded as “failed”.

Take “MKLVFVTVNYNNIDETRKVLNCFSGLSHGENSVLYVVDNSDSKSECQSLDKENTNNKIKFLYPKENLGYLTGASFGVDFHYNNHGFDFDYLIILNNDIIFNVNEVLKSLEIFSQNNDAMMISPLVIDRGVNVNPYLTVRKSKRYMMFWNFILSNFFTFKVFHKINKYRALLSSKNNFSSTVQPFQKIYGSHGSVFILKNEYFLRGGSLRRLPFLYGEEIYIAEQVRKLGGDCVYYPSIKFEHKGSATLGNDTSRFKYLCIKQGHSFLYREFYS”: the protein production entry was “failed”.

Take “YNPWRNPEGALKRRNTVLNNMLVMGYLSQSQYDEEVARPLGVVSKPTLGPAKFPDFLDIVRRQLRAEYQESDLTNQGL”: the protein production result is given as “failed”. With “MQVRAVFFARLRREVGLEELTLDVPDGADVRAVAEHLEQERGVSLRGCMVAVNETYASPEHLLREGDEVAFLPPVAGGAPEDEADADTHCRVTADPLSLSEADAFLVKPEYGAQAYFMGTVRSPNQGQVVEYIDYEAFAPMAEKVMREAAALARERHGELRVWIEHRTGRLTPAVASIVIGVASPHRRPALEACDFLIEHLKIELPIWKHEADGRGEHWVKGTTGHDTL” the entry was “failed”. With “MKGGTIQISWHDGKPVLTVDFHPISGLLATAGADYDIKLWLINSGQAEKKVPSVSYQSSLTYHGCAVNTIRFSPSGELLASGADGGELFIWKLHPSETNQSWKVHKSLSFHRKDVLDLQWSPDDAYLISGSVDNSCIIWDVNKGSVHQILDAHCHYVQGVAWDPLAKYVASLSSDRTCRIYANKPQTKSKGVEKMNYVCQHVIMKADQQRGDETKTIKTHLFHDETLPSFFRRLSWSPDGSFLLIPAGSFKVSPTSEAVNATYVFSRKDLSRPALQLPGASKPVVVVRFCPVAFKLRGSSSEEGFFKLPYRLVFAIATLNSVYIYDTECVAPIAVLAGLHYAAITDITWSPNASYLALSSQDGYCTLVEFEDKELGEAVSISGLLLVLSLLNLPEPD” the entry was “failed”; with “MESSGNPESTTFFYYDLQSQPCENQAWVFATLATTVLYCLVFLLSLVGNSLVLWVLVKYESLESLTNIFILNLCLSDLVFACLLPVWISPYHWGWVLGDFLCKLLNMIFSISLYSSIFFLTIMTIHRYLSVVSPLSTLRVPTLRCRVLVTMAVWVASILSSILDTIFHKVLSSGCDYSELTWYLTSVYQHNLFFLLSLGIILFCYVEILRTLFRSRSKRRHCTVKLIFAIVVAYFLSWGPYNFTLFLQTLFRTQIIRSCEAKQQLEYALLICRNLAFSHCCFNPVLYVFVGVKFRTHLKHVLRQFWFCRLQAPSPASIPHSPGAFAYEGASFY”, “failed”; with “MNQQDIKQKVLDVLDHHKVGSLATVAAGAPHSRYMTFFHDGLTIYTPTSKETHKAEEIENNPNVHILLGYDCEGFGDAYVEVAGKAKINNSAELKDKIWSSKLERWFDGKDDPNLVILEIEPEDIRLMNAGEKTPVSLEL”, “not failed”.

For “MASVNSPIRTFLKPLLFKLFGKNVYARFQFYAKIKDIDKRLVEEKEMELLPYFLNKDSNSIDVGANYAYYTVGMSKLSKKVFAYEPIPFTYKVCKMLLKHYNCANVDLFAQGVGEKNEIKRFNVPVVDFGGISAGQAHMADRNNELKGKEQHYQFSKNEAYDCTVVSLDAAITDITPISFVKMDIEGAEYFALKGMQQLLLKHKPVILIEINPFFLTGFDIKENDLKNLIASHAYKTYIYSAELKKLQAFECAYFESNYILIPEEKIAQFNAIIE”, the protein production entry is recorded as “failed”. The entry for “MGHHHHHHSHSIKPSTNLVFAKVLEKTRHPNANHLNLVKVKANQKVYEIVCGANNFSVHNWVVLAKLNAELANGLKITPRELRGYVSNGMLCAYSEINPQATSFLTSTDLDGILVLDDNYDHYKTPNQIFNLDDVILDLSIPSNRNDLNGYFWIAKELCAYFDFEYVVDATINHRPHKEIIDVRI” is “failed”.

The values above are taken from a protein production outcome set (Wang et al. 2014).
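Further: failed if final PepcDB status was selected cloned or expressed and not failed if soluble or beyond.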
